The record followed here is a protein production outcome set (Wang et al. 2014).

The data set is described as follows: label from the status in PepcDB records.
For “MRGTAAIEGPGSQSMITRRGFLRFIGGSFLTAAALGAYAVGIEPMLLTHVKRYALTPPHWPDGLKLRVVALADIHACRPWMTQERIASLVEDANALQPDLIVLLGDYIAGMPLVTGPVTPSQWASALSGLKAPLGVLSILGNHDWWSDGFAQRAGAGPIIARKALEKVGIPVLENDVVRLEKDGQSVWIAGLADQLALLPARKGDDCKGLDDLDGTLAKVGDTAPIILLAHEPDIFPTVPSRVSLTLSGHTHGGQVRLFGYSPVVPSRFGNRYAYGHVVEKDRNLIVSGGLGFSIMPVRFGVRPEILQIDLG”, the protein production result is recorded as “failed”. Regarding “YRATKLWNEVTTSFRAGMPLRKHRQHFKKYGNCFTAGEAVDWLYDLLRNNSNFGPEVTRQQTIQLLRKFLKNHVIEDIKGRWGSENVDDNNQLFRFPA”, the protein production result is “not failed”. In the case of “MNNIRQLTKDEYPKAIELSWQVFTITGKEDFNNEGLEFFKSFIYNKKCINEIIFYGSFDNEALTGILGIKSNGKHISLFFIKPEYHRHGLGKKLFHYASTLHPSIETTVNSSTYAIPFYRSLGFAVVGEKQNYHGLCSTPMRRYHAVFVQKNKYTLRTWQTEDAHSLVQELNNKKIWDNCRNVFPHPYRLEHAETFIDLIQKKEGIHDFCIEVNGKAVGNIGFTPGTDVECFNAEVGYVIGEKYWNQGIVTDALQEAIYHYFTYTNTIRIFALVFEHNLPSMRVLEKAGFNKVGIMTKSIFKNGHFTNAHLFELLKNVLEHHHHHH”, the protein production entry is recorded as “failed”.

On to “MKKLFPLLLLILSILVGCGKKEKHSVTEIAREKKRITALLYEKELPTDSVKQLYENSVQNKNLVGQMLFAIEVGKRMRNMSQYTDAMLYHQKGLNAALNLRDTIVAAQAWNHLGTDSRRIGALAEASDYHYKALSLIESFSGNQNRPAIKARSAALNGIGNINLELGYHDEAEKNFLKALQGEKELDSPLGQAINYANLGRIYRQRKEYDKARTYFLLSLEQNNMAENLMGIGLCSINLGEVDEEKGDYQKALQEYATAYKLMEQLSDRWHWLNSCIPMARINLKQGNERLYQHFISLAEGTAKEINSTSHLIEIYNLQYENLERKKEYKQALEAFCLSKTLSDSMSIAHKVSSIQETRFNYERNKSQKELEEIQQVSKAKQEKSKFILLSTLFALFISILLISVLTYAYRQGKKHNKLIKETDKLRSGFFTGITHEFRTPITVIQGLNEKMSSSPDLQASDRTELHKIIDRQSSHMLNLVNQLLDICKIRSGVSTPEWRNGDIVSFVQILIDSFAPYAQAQDITLELQPESKPIVVDFVPSYLQKIISNLLSNAIKYSLAGGRVVISLAKTKNEKNLIIRVADNGIGIDKTDQAHIFDIFYRGQSATEKHGSGVGLSFTNILVENLRGTIKVESQPGKGSAFTISIPTQNQSSSAEILPWLPSSDDIVMPVHIAPDDSPTSPMVAALNHRFEDERPTILLVEDNKDINLLVKLLLCDRYNVLSAANGKEGIALATEHIPDIIITDIMMPIMDGIEMTIRMKQSPLLCHIPIVALTAKSTEQDRLEGIKSGVVSYLCKPFSPEELLMRIEQLLKDRELLKKFYMQKLMLDRKPEEEPQPIDDSSMQFLLAAKDAVSGGIKQNPDFSAQDLAEKMCMSPSQLNRKLTSVVGCSTIGYIQQIKIKLACKLLADESKNISDISIEAGFSDPAYFSRTFKRYMNCSPSQYRQKLLAMPGSDKETV”, for which the protein production entry is “failed”.

In the case of “MGTDKFNNIKIDKYENLINVLKTGDIFLCSGNYLVSKLIKKVSESMFSHTGIIVKWGEHTLIMESVEDDGVRIVPLEHYIKNYENSNNRYNGSLFIARHELLQNVNDDSEMIRNLIKVGFSLLNSGYDKNEIAQIVARIGLGIGRHEDNNEYICSEFVNECFKKIGVEFLTDSEGFIFPEHIAADHHVLPIAQIE”, the protein production entry is listed as “not failed”.

Consider “MRNKQSLVFLASSLFLLILAPITSEAISNPSTNINEVNREIVEESANDQATSAPSHSETLEQEPSLETTTTTDNHPAETDQSTATLEPSEQQKDDGTSATESVIVEPQPRMLAAPYATSLPDDPNIIPIDKVFQEPIGNATSILEGGKLLQLNPAVKSQKGAIWSKKPISLLSDFTFKSYLYLGNEYANAGDGMTFTLTNDPRMSTTPQEVIGSPGMGIGAYSTKAGQPYVRNALSIEFDTYKNTGSSNRMDREISQDKGNGHLAFVTPKANNNNYTGEHSGVTVAPTYLSNGTWRMLTVHWNAATKALTYDLEGVGTNTYVVSDLNAQFGATTVYWGFTSSTGGKYQENALAMTQIPTNVTSQAALSVNGQEFSSAVEAVKNDQVRLRNTLNIDNDFIEDRQPQVSIDLPDELAYEENSLTIDGKKVAAKDLTQTGNHLTIALNDYLVLKKDMMIELKTTLQDNTPEKVLTMNFDYYEEGTLLQKSNNVTITIPKPTEKTVTVFYKDAEGKDIAPPKSVTGKIGAPYQEKPLDISGYVFTKDSGNAEGTMTEETKDIYFYYRLGELYFKEAPKQITFGTEKIRNQPLIKLGHPTEGLKVVDERNANNWRLQLKQTQPLTNDSIVMPDVFSFVSTAGSSQITNEAITLLESNQKGETDLTALLDESKQQGIQINVPVAYQRVGTFKARLSWALEDVPGN”, for which the protein production result was “failed”. With “MAEPGIDKLFGMVDSKYRLTVVVAKRAQQLLRHGFKNTVLEPEERPKMQTLEGLFDDPNAETWAMKELLTGRLVFGENLVPEDRLQKEMERIYPGEREE”, the protein production result is recorded as “not failed”. “RLQPIIVPGWQGSGPGHWQTHWSRTLPHAVRLQQRDWHQPQRAEWVAALAAAVDAAPTPVLLVAHSLGCLVSAALPIALRAKVAGALLVAPADVERPGAPAAIAAFGPVPRQSLPYQSVVIASDDDPYCRLERARQFAQDWGSRLVVLQGAGHINADSQLGAWPQGLKQLAALRRRACW”: the protein production entry is “failed”.

Turning to “MMNTSDNHALGDFLRARRQRLDPATFGFPAGRRRTPGLRREEVAQLASISPTWYTWLEQGRGGAPSREVLERIARGLRLTTPEREHLFILAFGHPPQTRLTVTDDMTPRLQRVLDAFTIPAIIRTASW”, the protein production entry is “failed”.

As to “MNNQYKLIEEFNNAEFDKSLKWFSPPKDWEVNSNKSKLIVKPDKETDFWQKTHYEFQVDNGHFLYYELNGDFRLITKVKSKPANRYDQAGLMVRFSKDTWLKTSVEYIPDDNSKLGVVVTKNGYSDWSSQEFFGDLNSLYYRITRRGNNYYVDYSLDGDLWKQIRMVYLFEEKDCMKVGIYACSPQGDGYEAEFEFIKIENIDDNTKVY”, the protein production result is “failed”. “GLPVAQSTTTLIDALRTHRMAVVQAPPGTGKTTLVPPIAHNVTGGRVIVVAPRRVAVRAAAHHLVQLDQSSCDQPSTHRVGYTIRGERSRGDLVEFVTPGVLLRRLISNPELDGVSAVVVDEVHERQLDTDLVLGMLVELRELRDDLTVIAMSAT”: the protein production entry is on record as “failed”. As to “MEVISSFYLFLEILGTVAFAISGTVVGINHKLDIFGILVMSVITAVGGGIFRDLLLGATPPTALKSPFFIVISIIASIVAMLVALIIKSRREALSIFKAARFYNNLLLVSDAIGLGIFTVLGIDAGIAHGYSQNIFFIVFLGVLTGVGGGMIRDVIANQVPMIFRENIYALPCIIGGILYVYLQSVISHNLALFISVIFIVLIRIISEQRKLNLPRIEY”, the protein production entry is “failed”.

Consider “MSRFMARIMVNGLNEPGTLAKVAQTVAGLDVNIRLLNTVRVAADFTEMMLEVEVWDLRQLNQLLAQMKELDCIATVRRLYELEHHHHHH”, for which the protein production entry was “not failed”. As for “MRPRPDAALAMSSGPPAARKPGVVQPALLNMSAWLRPEPGLTVVTPLVRALVLISAFSPQERWLGNGQLAQRTGLPPSTVSRIAQSLVHLGYLLHDGAERKYRLAPAVLGLGYAAIAHSAIQGLAGERMAAFARQHKVHVCLAARDRLDLVVLECRRSLECPVALPLHVGMRVGIAQSPMGWSMLAALPELERCYLLDNVERRMARDWSRLRRRVWEGMAQVGETGYCTSIGEWNPELGALATPVLLEGSSPFVLACIGTSQTMTRARVARELGPRLLAMREALQTEFNVIGH”, the protein production entry is “failed”. Next, “MESPTQTSEHIESMTEFLVKHYPDQLREISLSSDPKLHYPLFIEYAELVDDNPSLARQVFSDPEHYLRQFDDSAILAHKIALEHMKKFEEKIGIEKRFIHVRINTSGSPLERSPETFPSIGRVRVKHRGILMMLKGTVIRSGAVKMYEGEKMYRCRKCKHMFPIFPELESINSIVKPPFCPSQRSKACEGTNFDPVDDTVTRHDYQEIKIQENTQVLGVGVIPRSILVVLKDDLVDNVKAGDDVVVSGILTSKWSHDLKDVRCDLEPMLIANHVRRTNELKSEIDISDDLIEKFKNFWSHFRDTPLKGRNAILRGICPQVFGLFTVKLAVALTLIGGVQHVDASGTKVRGESHLLLIGDPGTGKSQFLKFAAKLSNRAVITTGLGSTSAGLTVTAVKDGGEWMLEAGALVLADGGLCCIDEFDSMREHDRATIHEAMEQQSISVAKAGLVTTLSTKTIVFGATNPKGQYDPDQYTKNPEWDAVVSSHILAEVQIEQDREVDDLTTIWPLPMLQRYIQFVKKNFRPVLSKEAEEIISSYYRLQRRSSTHNAARTTVRMLESLIRLAQGTSSVIVFINQNTPKTGTKERILMVLWCHAAHARLMFRNEVTRLDAITAILCIESSMTISAIVDSMGNALHSNFSEEPDQECILFRH”: “failed”; “MATIHVDGKTLEVDGADNLLQACLSLGLDIPYFCWHPALGSVGACRQCAVKQYTDENDKRGRLVMSCMTPATDNTWISIEDEEAKQFRASVVEWLMTNHPHDCPVCEEGGHCHLQDMTVMTGHNERRYRFTKRTHQNQELGPFIAHEMNRCIACYRCVRYYKDYAGGTDLGVYGAHDNVYFGRVEDGVLESEFSGNLTEVCPTGVFTDKTHSERYNRKWDMQFAPSICHGCSSGCNISPGERYGEIRRIENRYNGSVNHYFLCDRGRFGYGYVNREDRPRQPLLVLSKQKLSLDGALDQAAALLKERKVVGIGSPRASLESNFALRELVGEGNFYSGINEGELDRLRLILQVMQEGPLPVPSIRDIEDHDAVFVLGEDLTQTAARIALALRQSVKGKAVEMAADMKVQPWLDAAVKNIAQHAQNPLFIASVSATRLDDVAEETVHAAPDDLARLGFAVAHAIDPSAPSVADLDPQAQAFAQRITDALLAAKRPLVVSGNSLGNKALIEAAANIAKALKQREKNGSISLVVGEANSLGLALFGGDSVEAALERLTSGQADAVVVLENDLYRRTDAARVDAALAAAKVVIVADHQQTATTAKAHLVLPAASFAEGDGTLVSQEGRAQRFFQVFDPTYYDARNMVREGWRWLHAIHSTLQGKRVDWTQLDHVTEAVAEAKPILAGIRDAAPAASFRIKGLKLAREPHRYSGRTAMRANISVHEPRTPQDIDSAFAFSMEGYSGSQEDRQQIPFAWSPGWNSPQAWNKFQDEVGGHLRAGDPGVRLIEPKGEGLDWFQAVPVPFSAKADSWKVVPLYHLFGSEENSSRAAPIQQRIPETYVALSKEDADRLGVNDGATLGFQLKGQALRLPLRIDEQLGAGLIGLPVGFAGIPAAIAGCSVEGLQ”: “failed”. Consider “SSEAKKGHVLFFPYPLQGHINPMIQLAKRLSKKGITSTLIIASKDHREPYTSDDYSITVHTIHDGFFPHEHPHAKFVDLDRFHNSTSRSLTDFISSAKLSDNPPKALIYDPFMPFALDIAKDLDLYVVAYFTQPWLASLVYYHINEGTYDVPVDRHENPTLASFPGFPLLSQDDLPSFACEKGSYPLLHEFVVRQFSNLLQADCILCNTFDQLEPKVVKWMNDQWPVKNIGPVVPSKFLDNRLPEDKDYELENSKTEPDESVLKWLGNRPAKSVVYVAFGTLVALSEKQMKEIAMAISQTGYHFLWSVRESERSKLPSGFIEEAEEKDSGLVAKWVPQLEVLAHESIGCFVSHCGWNSTLEALCLGVPMVGVPQWTDQPTNAKFIEDVWKIGVRVRTDGEGLSSKEEIARCIVEVMEGERGKEIRKNVEKLKVLAREAISEGGSSDKKIDEFVALLT”, for which the protein production result is listed as “failed”. For the sequence “MTFFIFLLACSAAAATGIIFKPGAWYESLQKPAFTPPNWAFPVAWTTIYLLLAWAGYRLTLLPGSQTVLALWAAQIALNTLWTPVFFGANRIAAAMVILALLWIVVATMIVMALQLDIITGLILFPYLVWLSVAAALNFSILRHNR”, the protein production entry is listed as “failed”.
